Measured values: PMC6770759

Target: porcine pancreatic elastase (porcine) (UniProt P00772)
UniProt P00772, sequence (P00772 27-266): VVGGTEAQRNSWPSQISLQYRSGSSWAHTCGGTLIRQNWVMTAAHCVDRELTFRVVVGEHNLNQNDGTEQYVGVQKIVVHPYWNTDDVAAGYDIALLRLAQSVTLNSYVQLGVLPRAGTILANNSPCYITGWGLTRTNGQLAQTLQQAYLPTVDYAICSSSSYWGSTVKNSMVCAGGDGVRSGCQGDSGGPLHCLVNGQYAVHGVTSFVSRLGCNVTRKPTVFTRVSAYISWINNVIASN

- elastase inhibition % (hydrolysis of N-succinyl-tri-l-alanine-4-nitroanilide read at 410 nm), AAT from 7.5 to 120 µg/mL: 97%
Substance: Alpha-1-antitrypsin (standard AAT, purified from human plasma) (from UniProt P01009 25-418) (natural protein)
